B1: Tryptophan synthase alpha chain, P0A877 (parent)
chain: MERYESLFAQLKERKEGAFVPFVTLGDPGIEQSLKIIDTLIEAGADALELGIPFSDPLADGPTIQNATLRAFAAGVTPAQCFEMLALIRQKHPTIPIGLLMYANLVFNKGIDEFYAQCEKVGVDSVLVADVPVEESAPFRQAALRHNVAPIFICPPNADDDLLRQIASYGRGYTYLLSRAGVTGAENRAALPLNHLVAKLKEYNAAPPLQGFGISAPDQVKAAIDAGAAGAISGSAIVKIIEQHINEPEKMLAALKVFVQPMKAATRS

Variants of: B1
Details: Escherichia coli (strain K12), pH 9, Thermal, DSC, Sodium tetraborate 1 mM, reversible: yes, structure 1WQ5, whole UniProt chain shown

MERYESLFAQLKERKEGAFVPFVTLGDPGIEQSLKIIDTLIEAGADALELGIPFSDPLADGPTIQNATLRAFAAGVTPAQGFEMLALIRQKHPTIPIGLLMYANLVFNKGIDEFYAQCEKVGVDSVLVADVPVEESAPFRQAALRHNVAPIFICPPNADDDLLRQIASYGRGYTYLLSRAGVTGAENRAALPLNHLVAKLKEYNAAPPLQGFGISAPDQVKAAIDAGAAGAISGSAIVKIIEQHINEPEKMLAALKVFVQPMKAATRS [C81G]
Tm: 48.7 °C | change of melting temperature, mutant - wild type (higher = more stable): -4.8 °C | heat capacity change of unfolding: 6.82 kcal/mol/K | unfolding enthalpy (calorimetric): 104 kcal/mol

MERYESLFAQLKERKEGAFVPFVTLGDPGIEQSLKIIDTLIEAGADALELGIPFSDPLADGPTIQNATLRAFAAGVTPAQSFEMLALIRQKHPTIPIGLLMYANLVFNKGIDEFYAQCEKVGVDSVLVADVPVEESAPFRQAALRHNVAPIFICPPNADDDLLRQIASYGRGYTYLLSRAGVTGAENRAALPLNHLVAKLKEYNAAPPLQGFGISAPDQVKAAIDAGAAGAISGSAIVKIIEQHINEPEKMLAALKVFVQPMKAATRS [C81S]
Tm: 49.1 °C | change of melting temperature, mutant - wild type (higher = more stable): -4.4 °C | heat capacity change of unfolding: 5.02 kcal/mol/K | unfolding enthalpy (calorimetric): 92.8 kcal/mol

MERYESLFAQLKERKEGAFVPFVTLGDPGIEQSLKIIDTLIEAGADALELGIPFSDPLADGPTIQNATLRAFAAGVTPAQAFEMLALIRQKHPTIPIGLLMYANLVFNKGIDEFYAQCEKVGVDSVLVADVPVEESAPFRQAALRHNVAPIFICPPNADDDLLRQIASYGRGYTYLLSRAGVTGAENRAALPLNHLVAKLKEYNAAPPLQGFGISAPDQVKAAIDAGAAGAISGSAIVKIIEQHINEPEKMLAALKVFVQPMKAATRS [C81A]
ddG of mutation (higher = less stable) (50 °C): 0.69 kcal/mol | heat capacity change of unfolding (50 °C): 4.11 kcal/mol/K | unfolding free energy (50 °C): 0.48 kcal/mol | Tm: 51.8 °C | change of melting temperature, mutant - wild type (higher = more stable): -1.7 °C | heat capacity change of unfolding: 4.11 kcal/mol/K | unfolding enthalpy (calorimetric): 83.5 kcal/mol

MERYESLFAQLKERKEGAFVPFVTLGDPGIEQSLKIIDTLIEAGADALELGIPFSDPLADGPTIQNATLRAFAAGVTPAQVFEMLALIRQKHPTIPIGLLMYANLVFNKGIDEFYAQCEKVGVDSVLVADVPVEESAPFRQAALRHNVAPIFICPPNADDDLLRQIASYGRGYTYLLSRAGVTGAENRAALPLNHLVAKLKEYNAAPPLQGFGISAPDQVKAAIDAGAAGAISGSAIVKIIEQHINEPEKMLAALKVFVQPMKAATRS [C81V]
Tm: 49.1 °C | change of melting temperature, mutant - wild type (higher = more stable): -4.4 °C | heat capacity change of unfolding: 4.31 kcal/mol/K | unfolding enthalpy (calorimetric): 57.4 kcal/mol

MERYESLFAQLKERKEGAFVPFVTLGDPGIEQSLKIIDTLIEAGADALELGIPFSDPLADGPTIQNATLRAFAAGVTPAQCFEMLALIRQKHPTIPIGLLMYANLVFNKGIDEFYAQCEKVGVDSVLVADVPVEESAPFRQAALRHNVAPIFIAPPNADDDLLRQIASYGRGYTYLLSRAGVTGAENRAALPLNHLVAKLKEYNAAPPLQGFGISAPDQVKAAIDAGAAGAISGSAIVKIIEQHINEPEKMLAALKVFVQPMKAATRS [C154A]
ddG of mutation (higher = less stable) (50 °C): 1.03 kcal/mol | heat capacity change of unfolding (50 °C): 4.11 kcal/mol/K | unfolding free energy (50 °C): 0.14 kcal/mol | Tm: 50.6 °C | change of melting temperature, mutant - wild type (higher = more stable): -2.9 °C | heat capacity change of unfolding: 4.11 kcal/mol/K | unfolding enthalpy (calorimetric): 73 kcal/mol

MERYESLFAQLKERKEGAFVPFVTLGDPGIEQSLKIIDTLIEAGADALELGIPFSDPLADGPTIQNATLRAFAAGVTPAQCFEMLALIRQKHPTIPIGLLMYANLVFNKGIDEFYAQCEKVGVDSVLVADVPVEESAPFRQAALRHNVAPIFIVPPNADDDLLRQIASYGRGYTYLLSRAGVTGAENRAALPLNHLVAKLKEYNAAPPLQGFGISAPDQVKAAIDAGAAGAISGSAIVKIIEQHINEPEKMLAALKVFVQPMKAATRS [C154V]
ddG of mutation (higher = less stable) (50 °C): 1.12 kcal/mol | heat capacity change of unfolding (50 °C): 4.21 kcal/mol/K | unfolding free energy (50 °C): 0.05 kcal/mol | Tm: 50.2 °C | change of melting temperature, mutant - wild type (higher = more stable): -3.3 °C | heat capacity change of unfolding: 4.21 kcal/mol/K | unfolding enthalpy (calorimetric): 71.5 kcal/mol

MERYESLFAQLKERKEGAFVPFVTLGDPGIEQSLKIIDTLIEAGADALELGIPFSDPLADGPTIQNATLRAFAAGVTPAQCFEMLALIRQKHPTIPIGLLMYANLVFNKGIDEFYAQCEKVGVDSVLVADVPVEESAPFRQAALRHNVAPIFISPPNADDDLLRQIASYGRGYTYLLSRAGVTGAENRAALPLNHLVAKLKEYNAAPPLQGFGISAPDQVKAAIDAGAAGAISGSAIVKIIEQHINEPEKMLAALKVFVQPMKAATRS [C154S]
Tm: 45.3 °C | change of melting temperature, mutant - wild type (higher = more stable): -8.2 °C | heat capacity change of unfolding: 3.52 kcal/mol/K | unfolding enthalpy (calorimetric): 46.4 kcal/mol

MERYESLFAQLKERKEGAFVPFVTLGDPGIEQSLKIIDTLIEAGADALELGIPFSDPLADGPTIQNATLRAFAAGVTPAQCFEMLALIRQKHPTIPIGLLMYANLVFNKGIDEFYAQVEKVGVDSVLVADVPVEESAPFRQAALRHNVAPIFICPPNADDDLLRQIASYGRGYTYLLSRAGVTGAENRAALPLNHLVAKLKEYNAAPPLQGFGISAPDQVKAAIDAGAAGAISGSAIVKIIEQHINEPEKMLAALKVFVQPMKAATRS [C118V]
Tm: 49.3 °C | change of melting temperature, mutant - wild type (higher = more stable): -4.2 °C | heat capacity change of unfolding: 2.42 kcal/mol/K | unfolding enthalpy (calorimetric): 73 kcal/mol

MERYESLFAQLKERKEGAFVPFVTLGDPGIEQSLKIIDTLIEAGADALELGIPFSDPLADGPTIQNATLRAFAAGVTPAQCFEMLALIRQKHPTIPIGLLMYANLVFNKGIDEFYAQSEKVGVDSVLVADVPVEESAPFRQAALRHNVAPIFICPPNADDDLLRQIASYGRGYTYLLSRAGVTGAENRAALPLNHLVAKLKEYNAAPPLQGFGISAPDQVKAAIDAGAAGAISGSAIVKIIEQHINEPEKMLAALKVFVQPMKAATRS [C118S]
Tm: 45 °C | change of melting temperature, mutant - wild type (higher = more stable): -8.5 °C | heat capacity change of unfolding: 2.3 kcal/mol/K | unfolding enthalpy (calorimetric): 75.6 kcal/mol

MERYESLFAQLKERKEGAFVPFVTLGDPGIEQSLKIIDTLIEAGADALELGIPFSDPLADGPTIQNATLRAFAAGVTPAQCFEMLALIRQKHPTIPIGLLMYANLVFNKGIDEFYAQAEKVGVDSVLVADVPVEESAPFRQAALRHNVAPIFICPPNADDDLLRQIASYGRGYTYLLSRAGVTGAENRAALPLNHLVAKLKEYNAAPPLQGFGISAPDQVKAAIDAGAAGAISGSAIVKIIEQHINEPEKMLAALKVFVQPMKAATRS [C118A]
Tm: 49.2 °C | change of melting temperature, mutant - wild type (higher = more stable): -4.3 °C | heat capacity change of unfolding: 3.3 kcal/mol/K | unfolding enthalpy (calorimetric): 82.3 kcal/mol
